According to patent publication US20140341809A1:

What was measured:
…/HLA-A2 [1] = assay: SPR, against wild-type DMF5
…/HLA-A2 [2] = assay: SPR, Biacore 3000, 25 C
…/HLA-A2 [3] = assay: SPR, Biacore 3000, 25 C (FIG. 2B shows a kinetic titration for this pair)

| ΔΔG (…/HLA-A2 [1]) [kcal/mol] | Kd (…/HLA-A2 [2]) [nM] | Kd (…/HLA-A2 [3]) [nM] | Substance |
| --- | --- | --- | --- |
| -1.6 | 680 | – | DMF5 TCR αD27W mutant |
| – | 1700 | 24 | high-affinity DMF5 variant αD27Y/βL95W (TCR) |
